Assay results from patent US12648942B2, “Method for treating acute ischemic stroke” (Lumosa Therapeutics Co., LTD, priority 2021, dated 2026).
Read-outs that look alike come from different tables or passages of the source.

Columns and labels:
[1] = system: photochemically induced thrombosis of the middle cerebral artery in rats; assay: Photochemically induced thrombotic (PIT) stroke model in rats (Examples 3, 10); type: in vivo, rat; conditions: 24 hours after PIT surgery
Method: Under anesthesia, the left middle cerebral artery (MCA) was occluded by a thrombus generated at the site of photoirradiation. The left MCA was exposed via a transorbital approach. A vertical incision was made between the left orbital and the external auditory canal. The temporal muscle was reflected and a subtemporal craniotomy was performed without removing the zygomatic arch. A window of approximately 3 mm in diameter was opened at the base of the skull. The main trunk of the left MCA was visible through the window. Endothelial cells in the MCA were focally injured by a photochemical reaction between rose bengal and green illumination (X540 nm, 600,000 Lux). Rose bengal (20 mg/kg) was intravenously dose and then the MCA was exposed to green light for a period of 10 min. During surgery, animals were placed on a heating pad set at 38 C.
Twenty-four hours (±2 hrs.) after thromboembolism, and once daily for the next five days, neurologic deficits were scored according to a modified method described by Ederson et al. (Stroke, 1986, 17: 472-476). A total of “0” indicates no deficit whereas a maximal score of “15” indicates severe deficits.
Each brain was cut into six coronal blocks with a rat brain matrix (2 mm interval). Brains were post-fixed overnight in 4% paraformaldehyde at 3.1-6.2° C., stored in phosphate-buffered saline and sent out for histological processing. Each coronal block was embedded in paraffin. One coronal section from each block was taken and stained with hematoxylin and eosin (HE).
From the HE-stained sections, the infarct areas (mm^2) were manually marked using OsiriX version 8.0.2 (Pixmeo SARL, Bernex, Switzerland). The volume of ischemic infarction (mm^3) was calculated as the […] (six coronal sections per brain). Infarct volumes were calculated in cerebral cortex and basal ganglia. Total infarct volume was calculated by adding the infarct volumes of the basal ganglia and cerebral cortex.
Rats were treated with vehicle (saline), rtPA (10 mg/kg), DC009 (0.007 mg/kg, 15-minute IV infusion) after 1 hours of stroke onset, or DC009 (0.007 mg/kg, 15-minute IV infusion) after 3 hours of stroke onset. (n=10 per treatment group). At 24 hours after drug administration, rats were assessed with a neurological deficit scale (NDS).
24 hours after PIT surgery, rats were euthanized, and brains were processed for […].

[2] = system: subjects with acute ischemic stroke (AIS); conditions: cited from earlier work
[3] = system: patients with Acute Ischemic Stroke (AIS); assay: Study 201: Phase 2 single-dose study in patients with Acute Ischemic Stroke, efficacy (NIHSS, mRS); type: in vivo, human; conditions: Day 90
Text: The objective of this Phase 2, double-blind, single-dose, randomized, placebo-controlled study is to evaluate the safety, tolerability, and potential efficacy of DC009 drug product in patients with Acute Ischemic Stroke (AIS). The safety and potential efficacy outcomes from this Phase 2 study will guide the design of future studies in patients with acute ischemic stroke. Eligible patients will be randomized 2:1 to receive DC009 drug product or placebo via a 15-minute IV infusion to obtain a total of approximately 24 evaluable patients. Eligible patients will receive a single 0.025 mg/kg dose of DC009 drug product or placebo within 24 hours after the onset of stroke symptoms.
The key inclusion criteria are as follows: Subject a) are to be aged 18-90 years, inclusive, at the time of screening, b) have a NIHSS of 4-30, c) clinical diagnosis of AIS within 24 hours after stroke symptom onset.
Tissue plasminogen activator (alteplase) is the only approved drug treatment for stroke in the US and, per the labeling, must be administered within 3 hours of stroke symptom onset. The approved window of administration in other countries varies. Because there is no approved drug treatment for acute ischemic stroke for administration beyond 3 hours of stroke symptom onset in the US, a placebo-controlled study would be ethically acceptable and is necessary in order to evaluate the drug effect objectively. Preliminary efficacy will be evaluated by assessing the infarct volume, occurrence of recurrent stroke, neurological outcome measured by NIHSS and functional independence measured by Modified Rankin Scale (mRS).
• The occurrence of symptomatic intracranial hemorrhage (sICH) within 36 hours after dosing, clinical deterioration defined as an increase in the NIHSS of 4 points or more and confirmed by computed tomography or magnetic resonance imaging. Secondary Endpoint: • The occurrence of symptomatic intracranial hemorrhage (sICH) and asymptomatic intracranial hemorrhage (aICH) within 7 days after dosing • The occurrence of mortality due to intracerebral or other major bleeding complications within 24 hours, 7 days, 30 days, and 90 days after dosing. • Number and severity of AEs within 90 days after dosing • The occurrence of recurrent stroke within 90 days after dosing • Functional outcome such as mRS • Neurological outcome such as NIHSS at 30 days • The change of infarct volume in CT or MRI examination at 24 hours and 7 days • Plasma PK parameters of DC009 Results Baseline Characterization

[4] = Plasma pharmacokinetics after single IV bolus in Sprague Dawley rat; type: in vivo; conditions: for AUC(0-inf) / Cmax / AUC(0-t): male, Sprague-Dawley, rat, plasma, n=3; for AUC(0-t): read-out: AUClast, Mean (converted)
Method: The plasma pharmacokinetics of DC009 was studied in SD Rat following a single IV bolus administration of DC009. Male SD rats were dosed with DC009 at 0.001, 0.01, 0.1, 1 and 10 mg/kg by intravenous bolus injection with a dose volume of 1 mL/kg (n=3 per treatment group).

minipigs = assay: Pre-clinical toxicity in minipig; type: in vivo; conditions: set from pre-clinical toxicity result in minipigs
Method: According to inventors' pre-clinical toxicity result of DC009 in minipig, the inventors set up a limit on plasma exposure of 1177 ng/mL in minipigs. The inventors then set up a safety factor to provide a margin of safety for protecting human subjects receiving the initial clinical dose. As described in the Background, the default safety factor is 10 but it may be adjusted based on available safety data.

[5] = Human plasma pharmacokinetics, summary statements of the description; type: in vivo
[6] = DC009 0.007 mg/kg, 15-minute IV infusion, 1 hr post-PIT
[7] = DC009 0.007 mg/kg, 15-minute IV infusion, 3 hr post-PIT
[8] = 0.001 mg/kg IV bolus, some concentrations below LLOQ 5 ng/mL
[9] = 0.01 mg/kg IV bolus, some concentrations below LLOQ 5 ng/mL

Molecule: rtPA: Alteplase (Activase), a recombinant tissue-type plasminogen activator (rtPA) [reference compound]
- infarction volume, Basal ganglia ([1]; rtPA 10 mg/kg, 1 hr post-PIT): 80.7 ± 4.3 mm^3
- infarction volume, Cerebral cortex ([1]; rtPA 10 mg/kg, 1 hr post-PIT): 200.0 ± 18.1 mm^3
- infarction volume, Basal ganglia ([1]; rtPA 10 mg/kg, 3 hr post-PIT): 87.0 ± 7.0 mm^3
- infarction volume, Cerebral cortex ([1]; rtPA 10 mg/kg, 3 hr post-PIT): 173.5 ± 19.4 ** mm^3
- infarction volume, Total ([1]; rtPA 10 mg/kg, 3 hr post-PIT): 260.6 ± 23.9 ** mm^3
- risk of symptomatic intracerebral hemorrhage [2]: ~5 fold

Molecule: CC(NC(=O)C1CCCN1)C(=O)NC(CCCCN)C(=O)NCCCCC(NC(=O)C1Cc2cc(O)c(O)cc2C(C)(C)N1)C(=O)O (stereo not drawn) [DC009, 3S-6,7-dihydroxy-1,1-dimethyl-1,2,3,4-tetrahydro-isoquinoline-3-acyl-Lys(Pro-Ala-Lys)]
- infarction volume, Basal ganglia [1, 6]: 63.7 ± 10.3 ** mm^3
- infarction volume, Cerebral cortex [1, 6]: 210.6 ± 26.4 mm^3
- infarction volume, Basal ganglia [1, 7]: 94.8 ± 6.2 mm^3
- infarction volume, Cerebral cortex [1, 7]: 227.7 ± 18.4 mm^3
- infarction volume, Total [1, 7]: 322.5 ± 23.0 mm^3
- subjects with mRS of 0-1 ([3]; pre-dose 0%, 3 subjects): 21%
- subjects with mRS Score 3 ([3]; pre-dose 6%): 29%
- subjects with mRS Score 2 ([3]; pre-dose 13%): 29%
- subjects with mRS Score 5 or 4 ([3]; pre-dose 81%): 21%
- dose proportionality of Cmax and AUC0-∞ ([4]; dose of 0.1 to 10 mg/kg groups): approximately dose-proportional increases
- AUC(0-inf) [4, 8]: 1.88 ng·h/mL
- Cmax [4, 8]: 0.0016 µg/mL
- AUC(0-t) [4, 8]: 1.76 ng·h/mL
- AUC(0-inf) [4, 9]: 4.04 ng·h/mL
- Cmax [4, 9]: 0.0061 µg/mL
- AUC(0-t) [4, 9]: 3.35 ng·h/mL
- AUC(0-inf) ([4]; 0.1 mg/kg IV bolus): 8.31 ng·h/mL
- Cmax ([4]; 0.1 mg/kg IV bolus): 0.0599 µg/mL
- AUC(0-t) ([4]; 0.1 mg/kg IV bolus): 7.89 ng·h/mL
- AUC(0-inf) ([4]; 1 mg/kg IV bolus): 53.2 ng·h/mL
- Cmax ([4]; 1 mg/kg IV bolus): 0.426 µg/mL
- AUC(0-t) ([4]; 1 mg/kg IV bolus): 52.8 ng·h/mL
- AUC(0-inf) ([4]; 10 mg/kg IV bolus): 937 ng·h/mL
- Cmax ([4]; 10 mg/kg IV bolus): 8.12 µg/mL
- AUC(0-t) ([4]; 10 mg/kg IV bolus): 936 ng·h/mL
- limit on plasma exposure (minipigs): 1177 ng/mL
- accumulation on multiple doses ([5]; administration of multiple doses): does not lead the accumulation
- plasma level after dosing ([5]; human plasma, 30 minutes after dosing): almost un-measurable
- half-life ([5]; human plasma, read-out: elimination half-life): < 5 min
